# Results reported in paper PMC2953525, “Subtle Alterations in PCNA-Partner Interactions Severely Impair DNA Replication and Repair” (PLoS Biology, 2010).
# Substitutions are numbered along the chain they refer to.
# T1: pol30-Rad27E6 (yeast, UniProt P15873 1-258, IDCL DIDADFLKIEEL to DGDYDILKIREL)
# T1 construct: PCNA (POL30), yeast; source: yeast two-hybrid fusion (pAD-GAL4, strain YRG2)
# T1 sequence: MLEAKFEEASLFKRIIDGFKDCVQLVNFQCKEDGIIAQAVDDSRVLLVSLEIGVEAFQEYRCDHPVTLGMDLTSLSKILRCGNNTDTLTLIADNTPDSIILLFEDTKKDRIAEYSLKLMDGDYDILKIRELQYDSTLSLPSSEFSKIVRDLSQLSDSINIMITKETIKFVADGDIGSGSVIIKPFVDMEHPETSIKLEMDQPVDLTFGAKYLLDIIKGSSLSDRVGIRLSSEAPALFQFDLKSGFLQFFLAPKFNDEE
# T2: pol30-Rad27L1 (yeast, UniProt P15873 1-258, IDCL DIDADFLKIEEL to D––VDILKIGEL)
# T2 construct: PCNA (POL30), yeast; two residues after the first aspartic acid of the IDCL are deleted; source: yeast two-hybrid fusion (pAD-GAL4, strain YRG2)
# T2 sequence: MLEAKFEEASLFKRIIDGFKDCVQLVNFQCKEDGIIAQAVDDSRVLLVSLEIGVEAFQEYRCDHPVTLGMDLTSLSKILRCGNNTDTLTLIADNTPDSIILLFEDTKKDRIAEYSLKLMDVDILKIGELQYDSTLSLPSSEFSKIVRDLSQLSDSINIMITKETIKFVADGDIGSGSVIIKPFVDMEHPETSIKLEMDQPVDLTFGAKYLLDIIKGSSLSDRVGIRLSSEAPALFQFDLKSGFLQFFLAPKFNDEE
# B1: pol30-Rad30E2: PCNA mutant evolved for Rad30, IDCL sequence DDDWDFLKILEL (protein)
# chain: T1 sequence with G121D, Y123W, I125F, R129L
# modifications: left off: Gal4 activation domain, end not stated, kept
# B2: pol30-Rad27E6: PCNA mutant evolved for Rad27, IDCL sequence DGDYDILKIREL (protein)
# chain: T1 sequence
# modifications: left off: Gal4 activation domain, end not stated, kept
# B3: pol30-Rad30E9: PCNA mutant evolved for Rad30, IDCL sequence DNDWDFLKIDEL (protein)
# chain: T1 sequence with G121N, Y123W, I125F, R129D
# modifications: left off: Gal4 activation domain, end not stated, kept
# B4: Rad27 (natural protein, yeast, UniProt P26793 1-382, looked up)
# chain: MGIKGLNAIISEHVPSAIRKSDIKSFFGRKVAIDASMSLYQFLIAVRQQDGGQLTNEAGETTSHLMGMFYRTLRMIDNGIKPCYVFDGKPPDLKSHELTKRSSRRVETEKKLAEATTELEKMKQERRLVKVSKEHNEEAQKLLGLMGIPYIIAPTEAEAQCAELAKKGKVYAAASEDMDTLCYRTPFLLRHLTFSEAKKEPIHEIDTELVLRGLDLTIEQFVDLCIMLGCDYCESIRGVGPVTALKLIKTHGSIEKIVEFIESGESNNTKWKIPEDWPYKQARMLFLDPEVIDGNEINLKWSPPKEKELIEYLCDDKKFSEERVKSGISRLKKGLKSGIQGRLDGFFQVVPKTKEQLAAAAKRAQENKKLNKNKNKVTKGRR
# notes: Rad27 (endonuclease), yeast; also called pBD-Rad27; source: yeast two-hybrid fusion (pBD-GAL4, strain YRG2)
# What was measured:
# [1] = molecular target: Rad30 PIP peptide; assay: SPR analysis of PCNA binding to PIP peptide; design: species or system yeast
# Description: To quantify differences in binding affinities of the PCNA mutants relative to the WT, we characterized four PCNA mutants with increased affinity for PIP peptides derived from Rad30, Pol32, Msh6, and Ung1 partners using SPR. These mutants were overexpressed in E. coli, purified by affinity chromatography, and immobilized on an SPR sensor chip for binding characterization. SPR binding analysis enabled direct and sensitive measurement of interaction affinities relative to the Y2H system and indicated an up to 8-fold increase in binding affinity for the different PIP peptides, relative to WT PCNA (Table 1). Such analysis allowed the detection of a significant decrease in the Rad30 PIP peptide dissociation rate in the Pol30-Rad30E9p mutant relative to the WT, indicating a ∼9-fold increase in the lifetime of the PCNA-Rad30 complex (see Table 1). Collectively the ELISA, Y2H, and SPR assays validated and quantified the increase in mutant PCNA binding affinities, relative to WT PCNA.
# Protein interaction assays were carried out using the ProteOn XPR36 (Bio-Rad) instrument. WT or PCNA mutants (0.4 to 5.2 fmol) were immobilized on the surface of a GLM sensor chip by a carbodiimide-activated succinimide-coupling method, as specified by the manufacturer. All SPR experiments were performed by flowing 150 µl of the target peptide at a flow rate of 30 µl/min onto the PCNA-bound chip. Different concentrations (5–5,000 nM) of PIP peptides (Table 1) were injected over the PCNA chip, and binding parameters were determined using ProteOn XPR36 software (Bio-Rad). The ligand (PCNA) and analyte (peptide) buffers were PBST and 150 mM NaCl, 1 mM EDTA, 0.01% Tween-80, 30 mM Hepes, pH 7.5, respectively.
# [2] = tested on: PCNA-Rad30 complex; assay: ELISA for PCNA-partner complexes extracted from yeast cells; type: binding; settings: ELISA of yeast extracts, GFP signal normalized to immobilized PCNA signal; averages of at least 5 independent repeats
# Description: (§1) To examine whether increased PCNA-partner interaction affinities result in increased PCNA-partner complex formation in vivo in pol30 mutant strains, we analyzed the levels of these complexes extracted from yeast cells. We used strains expressing the pol30 mutants as a sole source of PCNA in the cell under the control of the native POL30 promoter (see below). We immobilized PCNA from the crude yeast extracts onto ELISA plates and analyzed the amount of bound partner, relative to the amount of total PCNA immobilized on the plate (Figure 4).
# (§2) Figure 4 Increased levels of in vivo PCNA-partner complex formation in the pol30-Rad30E2 or the pol30-Rad27E6 mutant strains, relative to the POL30 strain. (A). ELISA experimental set-up for the detection of PCNA-partner complexes extracted directly from WT and mutant PCNA strains. The assay is based on the immobilization of PCNA-partner complex using anti-PCNA antibody-coated ELISA plates. Detection of complex levels is performed using antibodies against the GFP fused to the C-terminal of the PCNA partner. […]
# (§3) Yeast cell extracts were generated from 0.5 L of logarithmic cultures using conventional methods. […] Following centrifugation, cell extracts were collected and protein concentration was determined by the BCA method. […] PCNA-partner complex levels were calculated as the ratio of the GFP signal to the PCNA signal detected for the same cell extract. […]
# [3] = tested on: PCNA-Rad27 complex; assay: as above; type: binding; settings: ELISA of yeast extracts, GFP signal normalized to immobilized PCNA signal; averages of at least 5 independent repeats
# Description: as §1, §2, §3
# [4] = molecular target: T1, pol30-Rad27E6; assay: two-hybrid; quantitative Y2H: generation time of the YRG2 strains in liquid SC-Leu-Trp-His, given relative to cells expressing WT PCNA; average of at least 3 experiments; settings: partners not purified
# [5] = molecular target: T2, pol30-Rad27L1; assay: as above; settings: partners not purified
molecule,measurement,setting,value
"POL30: wild-type yeast PCNA (POL30), IDCL sequence DIDADFLKIEEL",Kd,"[1]; PCNA immobilized, peptide 5-5,000 nM, ProteOn XPR36, read-out: Binding affinity for Rad30 PIP peptide (SPR)",170 nM
same,off-rate (kd) of the Rad30 PIP peptide,[1]; SPR,0.03 s⁻¹
B1,increase in PCNA-Rad30 complex formation relative to the POL30 WT strain,[2],70%
B2,increase in PCNA-Rad27 complex formation relative to the POL30 WT strain,[3],17%
B3,off-rate (kd) of the Rad30 PIP peptide,[1]; SPR,0.00321 s⁻¹
same,fold increase in the lifetime of the PCNA-Rad30 complex,"[1]; SPR, from Rad30 PIP peptide dissociation rate, relative to the WT",~9 fold
same,Fold increase in binding affinity for Rad30 PIP peptide relative to WT PCNA (SPR),"[1]; footnote d, PCNA immobilized on GLM chip, peptide 5-5,000 nM",8.5 fold
B4,fold change in affinity relative to WT PCNA (Y2H generation time),[4],1.5 fold
same,fold change in affinity relative to WT PCNA (Y2H generation time),[5],1.7 fold
